One series concerns the target T1, TFAM (mature) (Homo sapiens, UniProt Q00059 43-246).
T1 sequence: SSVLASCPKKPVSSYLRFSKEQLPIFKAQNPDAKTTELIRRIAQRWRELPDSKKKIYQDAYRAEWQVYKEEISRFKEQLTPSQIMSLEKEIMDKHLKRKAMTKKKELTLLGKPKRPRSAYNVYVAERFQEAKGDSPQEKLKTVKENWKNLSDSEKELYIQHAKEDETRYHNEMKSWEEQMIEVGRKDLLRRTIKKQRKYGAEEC
The experiment in a line: FRET DNA bending.

The series “crystal structure” deals with the molecule itself. The series is described as follows: crystal structure.
Series [1] deals with T2, TFAM (43-237) (Homo sapiens, UniProt Q00059 43-237).
T2 sequence: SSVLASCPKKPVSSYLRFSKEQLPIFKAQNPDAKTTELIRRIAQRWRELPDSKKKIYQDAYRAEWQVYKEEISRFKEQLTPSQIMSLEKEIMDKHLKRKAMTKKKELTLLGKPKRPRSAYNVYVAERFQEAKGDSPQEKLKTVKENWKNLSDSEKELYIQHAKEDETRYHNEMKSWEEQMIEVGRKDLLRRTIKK
The series is described as follows: X-ray crystallography.

Series [2] addresses T2, TFAM (43-237). The experiment in a line: X-ray crystallography. The source holds these as a separate data set.
Series [3] deals with T2, TFAM (43-237). The experiment in a line: X-ray crystallography. The source holds these as a separate data set.

Where two headings read alike, the source gives them in different places.

B1: nonspecific 22 bp FRET (dsDNA)
DNA 1: ATTCAACCAATAGCCCTGGCCG
DNA 2: CGGCCAGGGCTATTGGTTGAAT
With B1, the binding result with TFAM (mature) was “binds”.

B2: TFAM (transcription factor A, mitochondrial) lacking the last 9 residues (43-237) (domain or fragment, human, UniProt Q00059 43-237, looked up)
chain: SSVLASCPKKPVSSYLRFSKEQLPIFKAQNPDAKTTELIRRIAQRWRELPDSKKKIYQDAYRAEWQVYKEEISRFKEQLTPSQIMSLEKEIMDKHLKRKAMTKKKELTLLGKPKRPRSAYNVYVAERFQEAKGDSPQEKLKTVKENWKNLSDSEKELYIQHAKEDETRYHNEMKSWEEQMIEVGRKDLLRRTIKK
As to B2, the binding result in the series “crystal structure” was “binds”.

B3: HSP1 22 bp (dsDNA)
DNA 1: GGTTGGTTCGGGGTATGGGGTT
DNA 2: AACCCCATACCCCGAACCAACC
For B3, the binding result with TFAM (43-237) [1] is given as “binds”.

B4: LSP 28 bp FRET (dsDNA)
DNA 1: TGTTAGTTGGGGGGTGACTGTTAAAAGT
DNA 2: ACTTTTAACAGTCACCCCCCAACTAACA
Consider B4, for which the binding result with TFAM (mature) was “binds”.

B5: HSP1-Br 22 bp (dsDNA)
DNA 1: GGTTGGTTCGGGGTATGGGGTT
DNA 2: AACCCCATACCCCGAACCAACC
modifications: 5-bromo-dU replacing T at strand 1 position 4 (mtDNA 550)
Turning to B5, the binding result with TFAM (43-237) [2] is “binds”.

B6: HSP1 22 bp FRET (dsDNA)
DNA 1: GGTTGGTTCGGGGTATGGGGTT
DNA 2: AACCCCATACCCCGAACCAACC
Regarding B6, the binding result with TFAM (mature) is “binds”.

B7: nonspecific 22 bp (ATPase6) (dsDNA)
DNA 1: ATTCAACCAATAGCCCTGGCCG
DNA 2: CGGCCAGGGCTATTGGTTGAAT
As for B7, the binding result in the series with TFAM (43-237) [3] is reported as “binds”.

The values above are taken from article PMC3936014 (Nature communications, 2014).
